Results on 3 molecules are retold here after US20170002068A1 (YEDA RESEARCH AND DEVELOPMENT, published 2017).

As a reminder, the Kd is the constant that tells how readily two partners part at equilibrium. High values mean lower affinity, low ones higher affinity.

T1: murine amphiregulin (mouse, UniProt P31955 94-191, limits assumed)
T1 construct: also called mAREG; murine AREG
T1 sequence (looked up): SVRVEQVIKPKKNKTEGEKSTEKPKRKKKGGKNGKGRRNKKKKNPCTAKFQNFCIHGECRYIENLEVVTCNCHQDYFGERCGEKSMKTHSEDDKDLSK

T2: murine heparin-binding EGF-like growth factor (mouse, UniProt Q06186 63-148, limits assumed)
T2 construct: also called mHB-EGF
T2 sequence (looked up): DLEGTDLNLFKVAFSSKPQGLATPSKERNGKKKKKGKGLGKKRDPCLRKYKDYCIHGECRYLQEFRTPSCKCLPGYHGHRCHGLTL

T3: human betacellulin (human, UniProt P35070 32-111)
T3 construct: also called hBTC; BTC
T3 sequence (looked up): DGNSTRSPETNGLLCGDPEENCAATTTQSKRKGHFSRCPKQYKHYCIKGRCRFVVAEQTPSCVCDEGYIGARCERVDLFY

T4: human neuregulin 1 (human, UniProt Q02297-6 177-241, limits assumed)
T4 construct: also called hNRG1; NRG1
T4 sequence (looked up): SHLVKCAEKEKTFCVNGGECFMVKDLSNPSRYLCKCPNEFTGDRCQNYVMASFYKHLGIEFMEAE

B1: human amphiregulin (ligand, UniProt P15514 101-198, looked up)
chain: SVRVEQVVKPPQNKTESENTSDKPKRKKKGGKNGKNRRNRKKKNPCNAEFQNFCIHGECKYIEHLEAVTCKCQQEYFGERCGEKSMKTHSMIDSSLSK
notes: also called AREG; hAREG
B2: AR558, anti-AREG monoclonal antibody (antibody, V domains shown)
VH: EVQLQQSGAELVKPGASVKLSCTASGFNIKDTYMHWVKQRPEQGLEWIGRIDPANRSTKYDPKFQGKATITADTSSNTADLHLSSLTSEDTAVYYCARLYGDSVWYFDVWGAGTTVTVSS
VL: QIVLTQSPAILSASPGEKVTMTCRAGSSVNYIHWYQQKPGSSPKPWIYATSNLASGVPARFSGSGSGTSYSLTISRVEAEDAATYYCQQWSGYPPMLTFGAGTKLELKR
notes: Mouse hybridoma mAb generated in AREG knockout mice; they may cover only the variable regions; also called mAb AR558
B3: AR30, anti-AREG monoclonal antibody (antibody, V domains shown)
VH: EVQLQQSGAELVRSGASVKLSCTASGFNIKDSYMHWVKQRPEQGLEWIGWVDPDNGDTEYAPEFQGRATLTADTFSSTAYLQLTSLTSEDTAVYYCNAPSTYGHYGFAYWGQGTLVTVSA
VL: DIVMTQAAPSVPVTPGESVSISCRSSKSLLHSNGKAYLYWFLQRPGQSPQLLIYRMSNLASGVPDRFSGSGSGTAFTLRISRVEAEDVGVYYCMQHLEYPLTFGAGTKLELKR
notes: Mouse hybridoma mAb raised against TRX-fused EGF-like domain of human AREG; they may cover only the variable regions; also called mAb AR30; AR30 mAb

Test [1] concerns the target T5, Epidermal Growth Factor Receptor (human, UniProt P00533 25-1210). Description: cell-based or functional assay.
The target of test [2] is T5, Epidermal Growth Factor Receptor. Description: displacement of 125I-EGF (50 ng/mL) by unlabeled ligand on MCAS ovarian cancer cells, on ice. How it is done: (§1) The cells were later washed and lysed, and the associated radioactivity was determined. […] The cells were later washed and lysed in 1 N NaOH. Cell-associated radioactivity was determined. […] Washed immunocomplexes, along with whole extracts, were immunoblotted with the indicated antibodies.

Test [3] has the same target. Description: displacement of 125I-EGF (50 ng/mL) from MCAS ovarian cancer cells by unlabeled ligand, 3 h on ice, cell-associated radioactivity. How it is done:
as §1
For orientation: In a radioligand displacement assay an active substance lowers the binding of a labelled ligand.

Test [4] has as its target T1, murine amphiregulin. As to the kind of experiment: ELISA, wells coated with 400 ng/mL ligand, mAb 2 h, anti-mouse-HRP, ABTS, 415 nm (legend; the y axis has no title). How it is done: (§2) Thereafter, wells were incubated for two hours with an anti-mouse antibody conjugated to HRP, followed by a 30 minute incubation with ATBS. Signals were determined using an ELISA reader (set at 415 nm). […] Thereafter, wells were incubated for two hours with an anti-mouse antibody conjugated to HRP, followed by a 30-min incubation with ATBS. Signals were determined using an ELISA reader (set at 415 nm). […] Thereafter, wells were incubated for two hours with an anti-mouse antibody conjugated to HRP, followed by a 20-min incubation with ATBS. Signals were determined using an ELISA reader (set at 420 nm).
(In an ELISA, binding on a coated surface is turned into a signal by an enzyme label.)

Test [5] concerns the target T6, human heparin-binding EGF-like growth factor (human, UniProt Q99075 63-148).
T6 construct: also called hHB-EGF; HB-EGF
The description is as above. How it is done: as §2

The target in test [6] is B1. As to the kind of experiment: ELISA, wells coated with human AREG at 0, 10, 50, 100, 500 ng/mL, antibody 2 h, anti-mouse-HRP, ABTS, absorbance 415 nm. How it is done:
Thereafter, wells were incubated for two hours with an anti-mouse antibody conjugated to HRP, followed by a 30 minute incubation with ATBS. Signals were determined using an ELISA reader (set at 415 nm).

Test [7] addresses T7, human epidermal growth factor (human, UniProt P01133 971-1023).
T7 construct: also called hEGF; EGF
As to the kind of experiment: ELISA, wells coated with ligand at 400, 200, 100, 50, 25 and 10 ng/mL, mAb 1 µg/mL 2 h, anti-mouse-HRP, ABTS; absorbance 415 nm on the sheet. How it is done:
as §2

The target of a further test is T8, human epigen (human, UniProt Q6UW88 24-104, limits assumed).
T8 construct: also called hEPG; EPG
T8 sequence (Q6UW88 24-104 limits assumed): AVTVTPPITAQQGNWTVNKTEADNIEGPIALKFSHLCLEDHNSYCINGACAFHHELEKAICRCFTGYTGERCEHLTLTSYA
Description: SPR (BIAcore 3000), ligand in solution over AR30-coated surface. How it is done: (§3) SPR was performed on a BIAcore 3000 instrument (BIAcore, Uppsala, Sweden). Proteins were diluted in 100 mM Na-acetate (pH 4.6) to 20 μg/ml and immobilized on a CM5 sensor chip using a standard protocol of amine coupling. The protein solution was flown over the chip for 5 minutes at a rate of 20 μl/min. […] The net signal was obtained by subtracting the blank signal (plain dextran matrix) from the signal recorded from the immobilized surface. The association phase for analyte binding to all ligands was followed for 4 minutes, and dissociation phases were monitored for 3 minutes. Surface regeneration between consecutive binding cycles included a 1 min injection of 2 mM NaOH. The response was monitored as a function of time (sensorgram). Multi-concentration data underwent fitting using the software BIAevaluation 3.2.
A general note: SPR reads the build-up and loss of mass on a sensor chip optically.

Test [8] concerns the target T1, murine amphiregulin. The test is described as above. How it is done: as §3
Test [9] deals with T2, murine heparin-binding EGF-like growth …. The description is as above. How it is done:
as §3

Test [10] concerns the target B1. Described as above. How it is done:
as §3

The target of test [11] is T6, human heparin-binding EGF-like growth …. Described as above. How it is done:
as §3

Test [12] has as its target T9, human transforming growth factor alpha (human, UniProt P01135 40-89).
T9 construct: also called hTGF-alpha; TGF-alpha
The description is as above. How it is done:
as §3

Test [13] concerns the target T7, human epidermal growth factor. The description is as above. How it is done:
as §3

Another test concerns the target T3, human betacellulin. Described as above. How it is done: as §3
For another test, the target named is T4, human neuregulin 1. Described as above. How it is done:
as §3

T6 sequence (Q99075 63-148 limits assumed): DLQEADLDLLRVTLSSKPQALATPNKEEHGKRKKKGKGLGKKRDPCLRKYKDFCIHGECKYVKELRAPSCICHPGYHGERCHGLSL
T7 sequence (P01133 971-1023 limits assumed): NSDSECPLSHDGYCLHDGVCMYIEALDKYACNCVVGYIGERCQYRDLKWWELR

With B1, the “endocytosis-mediated downregulation of EGFR (MCAS cells, 125I-EGF binding after stimulation)” value in [1] is roughly 30%. In test [2], the “fold lower binding affinity compared to EGF” value is roughly 100 fold. Further, the “IC50 (read off the curve)” value in test [3] is roughly 0.1 µg/mL.
Turning to B2, the binding result with murine amphiregulin [4] is recorded as “no binding (tested: 400 ng/mL coated ligand)”; in [5], “no binding (tested: 400 ng/mL coated ligand)”; in the test with human amphiregulin [6], “binds”; in test [7], “no binding (tested: 400 ng/mL coated ligand, mAb 1 µg/mL)”.
On to B3, for which the Kd in the test with human epigen was greater than 10 µM; in the test with murine amphiregulin [8] it was greater than 10 µM; in test [9], 6.65 µM; with human amphiregulin [10] it was 0.0017 µM; in test [11], 0.08 µM; in test [12], greater than 10 µM. The Kd (in [13]; with human betacellulin; with human neuregulin 1) was greater than 10 µM each time.
